Test results taken from patent publication US20030119716A1, “Methods for screening, treating and diagnosing G-protein coupled receptor-related disorders and compositions thereof” (Wyeth, priority 2001, published 2003).

B1: RGS2: human RGS2 expressed from pCR3.1; selective GAP for Gαq (protein)
chain: MQSAMFLAVQHDCRPMDKSAGSGHKSEEKREKMKRTLLKDWKTRLSYFLQNSSTPGKPKTGKKSKQQAFIKPSPEEAQLWSEAFDELLASKYGLAAFRAFLKSEFCEENIEFWLACEDFKKTKSPQKLSSKARKIYTDFIEKEAPKEINIDFQTKTLIAQNIQEATSGCFTTAQKRVYSLMENNSYPRFLESEFYQDLCKKPQITTEPHAT
B2: RGS4: human RGS4 expressed from pCR3.1; potent GAP for both Gαq and Gαi (protein)
chain: MCKGLAGLPASCLRSAKDMKHRLGFLLQKSDSCEHNSSHNKKDKVVICQRVSQEEVKKWAESLENLISHECGLAAFKAFLKSEYSEENIDFWISCEEYKKIKSPSKLSPKAKKIYNEFISVQATKEVNLDSCTREETSRNMLEPTITCFDEAQKKIFNLMEKDSYRRFLKSRFYLDLVNPSSCGAEKQKGAKSSADCASLVPQCA
B3: RGSz1: human RGSz1 expressed from pCR3.1; highly selective for Gαz (protein)
chain: MPQLSQDNQECLQKHFSRPSIWTQFLPLFRAQRYNTDIHQITENEGDLRAVPDIKSFPPAQLPDSPAAPKLFGLLSSPLSSLARFFSHLLRRPPPEAPRRRLDFSPLLPALPAARLSRGHEELPGRLSLLLGAALALPGRPSGGRPLRPPHPVAKPREEDATAGQSSPMPQMGSERMEMRKRQMPAAQDTPGAAPGQPGAGSRGSNACCFCWCCCCSCSCLTVRNQEDQRPTIASHELRADLPTWEESPAPTLEEVNAWAQSFDKLMVTPAGRNAFREFLRTEFSEENMLFWMACEELKKEANKNIIEEKARIIYEDYISILSPKEVSLDSRVREVINRNMVEPSQHIFDDAQLQIYTLMHRDSYPRFMNSAVYKDLLQSLSEKSIEA

System: c-fos SRE activation in CHO cells stably expressing D2R
Experiment: SRE-luciferase reporter assay, quinpirole-stimulated c-fos SRE activation in CHO-D2R cells
Assay type: cell-based, Chinese hamster
Settings: for effect of RGS transfection on quinpirole dose-response curve of SRE activation: RGS (2 μg) transfected alone, no Gα co-transfection; for reduction in SRE activation: RGS co-expressed with Gαq/i chimera

Row | Molecule | effect of RGS transfection on quinpirole dose-response curve of SRE activation | reduction in SRE activation | reduction in quinpirole-stimulated SRE activation (RGS co-expressed with Gαi1, 100 nM quinpirole) | inhibition (attenuation) of SRE activation (RGS co-transfected with Gαi1, all quinpirole concentrations used (10 nM-100 μM)) | reduction in quinpirole-stimulated SRE activation (RGS transfected without Gαi1 co-transfection, 100 nM quinpirole)
1 | B1 | rightward shift of the dose-response curve | approximately 70% | – | – | –
2 | B2 | rightward shift of the dose-response curve | about 60% | approximately 85% | > 80% | approximately 40%
3 | B3 | rightward shift of the dose-response curve | – | – | – | –
